Assay results reported in the supplement of paper PMC12042874.
± gives the uncertainty stated by the source.

Test: amyloid nucleation score (Sup35N fusion, yeast selection) (log enrichment); library NNK2; higher = more nucleation; inactive = no reads after selection
Outline: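 Sup35N was fused to peptides of 20 random codons and expressed in psi-negative yeast, which were induced with 100 μM copper sulfate for 24 hours and then grown on medium lacking adenine and uracil for 7 days at 30°C. Plasmid inserts from input and output were sequenced on Illumina. The nucleation score is the DiMSum log enrichment of output over input reads, centred on the mode score of non-aggregating sequences. Sequences with under 100 input reads were left out, and random libraries had three technical output replicates.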

Substance | amyloid nucleation score
AWRAYITILGKDHAVSVSGL | 0.715 ± 0.43
AWRDTHWTASCRSGSRRILS | 4.59 ± 0.046
AYGKLSE | -0.68 ± 0.5
AYGVIGWCWSYGERNWVHVR | 0.377 ± 0.49
AYHRWSTVLWILTYWTLRMC | 0.053 ± 1.1
AYKSYGKASSDWMWGLCSHH | -0.108 ± 0.56
AYLTTREAVGLFNKACLASY | 0.439 ± 0.74
AYMSITSSLYNCTRRPTGTC | -1.35 ± 0.38
AYRRYDWYFMLVRLLY | 0.795 ± 0.5
AYSEPAISQRFFLSGLKSII | -0.885 ± 0.34
AYSIHPLNKGVKVSYRLAGH | 0.306 ± 0.2
AYTFSNSVNVCCVGVLEVIV | 5.8 ± 0.077
AYVIRAKEC | 0.162 ± 0.39
AYYCLRDLEVEYKVGYGSRL | 2.64 ± 0.21
AYYLFYTRGEFR | 3.2 ± 0.09
AYYSVSC | 3 ± 0.11
CALFLFRKVLVLIT | -1.48 ± 0.55
CAMDCSSVQGGSTITKCHTM | 0.218 ± 1.1
CARYLIEVRYKGKKIQYSM | -0.837 ± 0.39
CASAVLCCPKTSR | -0.02 ± 0.34
CASNQCTGP | 3.28 ± 0.065
CAVEVM | -0.724 ± 0.64

Substance | amyloid nucleation score
CAVGDPYCSAMFMMNLWGEK | 9.547 ± 0.052
CCCASR | inactive
CCICKSRHLFDWKNDEWTSI | -0.45 ± 0.63
CCILVSWFGIHSRCGVRCAR | 0.877 ± 0.3
CCIRQCNMRIKADDQRRDVI | 0.109 ± 0.53
CCIRSLWLNLVLTNASGPSL | 4.39 ± 0.049
CCVYAASLLPFQLVAALLTD | 0.91 ± 0.34
CCYLFRSLRLVGSQIFSQSL | 0.35 ± 0.8
CDAGFEIVLSLIN | -0.828 ± 0.74
CDFLLLKLFRNVLVWLVCSG | inactive
CEEFMKFFAGYQTHVLVFSR | inactive
CESENKQYKNRLEIP | -2.05 ± 0.54
CFCWLLNSNLKGNLSRGRHL | -0.337 ± 1.1
CFFLTHCRDIRNVSTV | -0.234 ± 0.37
CFIKVAVNWQL | 8.826 ± 0.057
CFIRHISGK | -0.315 ± 0.63
CFLWHAT | 0.451 ± 0.41
CFMFWLCITNGIRPQCPLAS | 0.016 ± 0.65
CFNIQNFELNRVMNLFYCRY | 6.37 ± 0.075
CFNVV | 0.43 ± 0.49
CFRDTFERSFKFLERPNIMH | 1.26 ± 0.19
CFRRKGALSLIACRW | -0.03 ± 0.46

Substance | amyloid nucleation score
CFSLRVENSVRRTTTHPCLD | 3.87 ± 0.075
CFSNFVG | 0.746 ± 0.31
CFSSVIFAMIFVRNR | 1.73 ± 0.21
CFTKDMLSDNCVSV | -0.845 ± 1
CGCCRTRGL | 2.94 ± 0.054
CGHVTMHRWGMKNIMLVYAV | -0.889 ± 1
CGPPVIWVLLCKLGMFWTVS | -0.555 ± 0.55
CGRRMYKSIVQICMFRGNLN | 0.053 ± 0.79
CGRSRKRCIRASRSGSLNMC | 0.293 ± 0.53
CHANFNVG | 1.58 ± 0.19
CHCMLIG | 3.46 ± 0.066
CHFSYKECRSAVRMLQYNGA | 2.54 ± 0.13
CHGNGQLK | inactive
CHHGRYIQRVGYRLVPSAFQ | 0.098 ± 1
CHLHIYGTRIERAYHRDFFL | 3.4 ± 0.1
CHRKWRYLMEASHRLSHSSW | inactive
CHVFTSSSTRSLWTSDIIPS | 0.218 ± 0.48
CIFFPRGSNFFLFQMCGLSF | 3.83 ± 0.097
CIFPPYVWYGIVMVYASMYG | 6.602 ± 0.039
CIFYFMILFSGDIKCLNKPL | inactive
CIGYLMEIHVFSNDAKVYYL | 6.24 ± 0.038
CILDI | -0.089 ± 1.1

Substance | amyloid nucleation score
CILEHRSEQWYCYLWPARRG | 4.24 ± 0.078
CILRPSLSFFHMPLR | 6.962 ± 0.033
CILSYVQEMTMEPYLSKSLS | -0.296 ± 0.76
CILYKEACEIVIFPGFTVAN | -1.15 ± 1
CINLTLYFMQ | 9.091 ± 0.053
CIRTDFGA | -0.086 ± 0.35
CISTLIGTRPTAYLLLLRDI | inactive
CITLMYNTPFYKITALWQPF | -0.484 ± 0.78
CIYRHAFVLFTKPLNFGRVR | -0.166 ± 0.49
CKAIFFLLDPPTFIYRGSSC | 0.079 ± 0.57
CKEYMMIFMTIIKVYLNTYL | -0.698 ± 0.78
CKFLRVIA | -1.42 ± 0.41
CKIRNDSSSSRLVIHILDTA | 6.357 ± 0.059
CKPRNLLLLSPKPIVLCKDF | -1.21 ± 0.79
CKSQLHLRVRTRKNVCVVIS | 0.13 ± 0.62
CLAVSSDVDSQGKGIRIYIL | -1.24 ± 1.1
CLDVLLDKGSADIYFRQSSN | -1.06 ± 0.61
CLFSTCTRCCLSNGFNAITR | inactive
CLFVTVGFCICCLFFLWFCL | 5 ± 0.1
CLGGNHYHPSSTVTEQRYLT | 0.859 ± 0.48
